From publication PMC10687048 come the findings set out here.

The assay addresses Chikungunya virus (CHIKV) nonstructural protein 1 (nsP1) H37A mutant (chikungunya virus). Description: cryo-EM structure; nsP1-mut incubated with SAH and m7GpppAmU at 4 °C overnight; graphene-covered grids; refinement with C12 symmetry, 2.41 Å.

For orientation: stoichiometry N means a count of units in the complex or per binding partner. Regarding “Chikungunya virus (CHIKV) nonstructural protein 1 (nsP1) H37A mutant (enzyme)”, the stoichiometry N turned out to be 12.
